Positions count from the first letter of the chain named.
B1: FP2 (Fc fusion)
chain: DKTHTCPPCPAPEAAGAPSVFLFPPKPKDTLMISRTPEVTCVVVDVSHEDPEVKFNWYVDGVEVHNAKTKPREEQQNSTYRVVSVLTVLHQDWLNGKEYKCKVSNKALKAPIEKTISKAKGQPREPQVYTLPPSRDELTKNQVSLTCLVKGFYPSDIAVEWESNGQPENNYKTTPPVLDSDGSFFLYSKLTVDKSRWQQGNVFSCSVMHEALHNHYTQKSLSLSPGGGGSGGGGSGGGGSTALGRRKAEDRIKETLWADGVKIDEKDFEHIKSSHEDYFAVEYGKGSGYYDVNKKMDSEDTALCVGAVVTNMFHWWVDQNRENIEKFKKQDPENNGVMKFNGVKEATVDELNHFYKEYQSNKYADQSRFFDLIKKHFGNKALNPEELFELYFNGFYYNSSHRYIEDNKPAQNNLFSKVLENNKLLNPERSYGIDGFSNNVINALKSHKVLGLVHTTPLRYRHIISMWGADIDQDGKVKAIYVTDSDDREITFNDNSKRRIGMIRYDVLVDDNGNIRFTGKGATHKEEGAIYAGLYSLSRGDEVWEDYFKKYPEVQENL
B2: FP3 (Fc fusion)
chain: B1 chain with N398Q
B3: FP6 (Fc fusion)
chain: B1 chain with N341E, N398Q, K408E, R459T
B4: FP11 (Fc fusion)
chain: DKTHTCPPCPAPEAAGAPSVFLFPPKPKDTLMISRTPEVTCVVVDVSHEDPEVKFNWYVDGVEVHNAKTKPREEQQNSTYRVVSVLTVLHQDWLNGKEYKCKVSNKALKAPIEKTISKAKGQPREPQVYTLPPSRDELTKNQVSLTCLVKGFYPSDIAVEWESNGQPENNYKTTPPVLDSDGSFFLYSKLTVDKSRWQQGNVFSCSVMHEALHNHYTQKSLSLSPGGGGSGGGGSGGGGSTALGRRKAEDRIKETLWADGVKIDEKDFEHIKSSHEDYFAVEYGKGSGYYDVNKKMDSEDTALCVGAVVTNMFHWWVDQNRENIEKFKKQDPENNGVMKFEGVKEATVDELNHFYRDNRDNYADQSRFFDLIKKHFGNKALNPEELFELYFNGFYYGSSHRYIEDNEPAQNNLFSKVLENNKLLNPERSYGIDGFSNNVINALKSHKVLGLVHTTPLRYRHIISMWGADIDQDGKVKAIYVTDSDDREITFNDNSKRRIGMIRYDVLVDDNGNIRFTGKGATHKEEGAIYAGLYSLSRGDEVWEDYFKKYPEVQENL
B5: FP12 (Fc fusion)
chain: B4 chain with H453Y
B6: FP14 (Fc fusion)
chain: B4 chain with H453Y, R458T
B7: FP15 (Fc fusion)
chain: B4 chain with T301S, R458T
B8: FP17 (Fc fusion)
chain: DKTHTCPPCPAPEAAGAPSVFLFPPKPKDTLMISRTPEVTCVVVDVSHEDPEVKFNWYVDGVEVHNAKTKPREEQQNSTYRVVSVLTVLHQDWLNGKEYKCKVSNKALKAPIEKTISKAKGQPREPQVYTLPPSRDELTKNQVSLTCLVKGFYPSDIAVEWESNGQPENNYKTTPPVLDSDGSFFLYSKLTVDKSRWQQGNVFSCSVMHEALHNHYTQKSLSLSPGGGGSGGGGSGGGGSGGGGSGGGGSGGGGSTALGRRKAEDRIKETLWADGVKIDEKDFEHIKSSHEDYFAVEYGKGSGYYDVNKKMDSEDTALCVGAVVTNMFHWWVDQNRENIEKFKKQDPENNGVMKFNGVKEATVDELNHFYKEYQSNKYADQSRFFDLIKKHFGNKALNPEELFELYFNGFYYGSSHRYIEDNKPAQNNLFSKVLENNKLLNPERSYGIDGFSNNVINALKSHKVLGLVHTTPLRYRHIISMWGADIDQDGKVKAIYVTDSDDREITFNDNSKRRIGMIRYDVLVDDNGNIRFTGKGATHKEEGAIYAGLYSLSRGDEVWEDYFKKYPEVQENL
B9: FP121 (Fc fusion)
chain: B4 chain with H353E, H453Y
B10: FP132 (Fc fusion)
chain: DKTHTCPPCPAPEAAGAPSVFLFPPKPKDTLMISRTPEVTCVVVDVSHEDPEVKFNWYVDGVEVHNAKTKPREEQQNSTYRVVSVLTVLHQDWLNGKEYKCKVSNKALKAPIEKTISKAKGQPREPQVYTLPPSRDELTKNQVSLTCLVKGFYPSDIAVEWESNGQPENNYKTTPPVLDSDGSFFLYSKLTVDKSRWQQGNVFSCSVMHEALHNHYTQKSLSLSPGGGGGSGGGGSTALGRRKAEDRIKETLWADGVKIDEKDFEHIKSSHEDYFAVEYGKGSGYYDVNKKMDSEDTALCVGAVVTNMFHWWVDQNRENIEKFKKQDPENNGVMKFEGVKEATVDELNEFYRDNRDNYADQSRFFDLIKKHFGNKALNPEELFELYFNGFYYGSSHRYIEDNEPAQNNLFSKVLENNKLLNPERSYGIDGFSNNVINALKSHKVLGLVYTTPLRYRHIISMWGADIDQDGKVKAIYVTDSDDREITFNDNSKRRIGMIRYDVLVDDNGNIRFTGKGATHKEEGAIYAGLYSLSRGDEVWEDYFKKYPEVQENL
B11: FP133 (Fc fusion)
chain: B10 chain with G230S, S231K, G235S, S236K
B12: FP134 (Fc fusion)
chain: DKTHTCPPCPAPEAAGAPSVFLFPPKPKDTLMISRTPEVTCVVVDVSHEDPEVKFNWYVDGVEVHNAKTKPREEQQNSTYRVVSVLTVLHQDWLNGKEYKCKVSNKALKAPIEKTISKAKGQPREPQVYTLPPSRDELTKNQVSLTCLVKGFYPSDIAVEWESNGQPENNYKTTPPVLDSDGSFFLYSKLTVDKSRWQQGNVFSCSVMHEALHNHYTQKSLSLSPGGGGSKGGGSKGGGSKTALGRRKAEDRIKETLWADGVKIDEKDFEHIKSSHEDYFAVEYGKGSGYYDVNKKMDSEDTALCVGAVVTNMFHWWVDQNRENIEKFKKQDPENNGVMKFEGVKEATVDELNEFYRDNRDNYADQSRFFDLIKKHFGNKALNPEELFELYFNGFYYGSSHRYIEDNEPAQNNLFSKVLENNKLLNPERSYGIDGFSNNVINALKSHKVLGLVYTTPLRYRHIISMWGADIDQDGKVKAIYVTDSDDREITFNDNSKRRIGMIRYDVLVDDNGNIRFTGKGATHKEEGAIYAGLYSLSRGDEVWEDYFKKYPEVQENL
B13: FP136 (Fc fusion)
chain: B10 chain with G228S, G229A, S231K, G233S, G234A, S236K
B14: FP137 (Fc fusion)
chain: B12 chain with G228S, G229A, S230G, G233S, G234A, S235G, G238S, G239A, S240G
B15: FP139 (Fc fusion)
chain: B10 chain with G228S, G229S, G230A, S231P, G233S, G234S, G235A, S236P

target: Human IgE antibody (human); assay: cell-based or functional assay

| Binder | EC50 CE-SDS IgE [nM] | EC50 MSD IgE [nM] |
| --- | --- | --- |
| B1 | 212 | 140 |
| B2 | 71.5 | 114 |
| B3 |  | 99.4 |
| B4 | 68.5 |  |
| B5 | 43.3 | 0.753 |
| B6 | 31.9 |  |
| B7 | 54.7 |  |
| B8 | 56.3 |  |
| B9 | 1.22 | 1.25 |
| B10 | 1.27 |  |
| B11 | 1.15 |  |
| B12 | 2.36 |  |
| B13 | 0.61 |  |
| B14 | 1.28 |  |
| B15 | 0.11 |  |
